# From US20080280358A1 (University of California, published 2008)
# Target: Purified rabbit muscle actin (Cytoskeleton Inc.) (rabbit, UniProt P68135 3-377)
# Assay: cell-based or functional assay
binder,measurement,value
GIVRKWISRFEVWPYLKK [SS2 active peptide (SuSy 377-392)],bundling activity at 1:1 molar ratio to actin,1 molar ratio peptide:actin
same,bundling activity at molar ratio peptide:actin = 1:1,1 molar ratio peptide:actin
same,bundling when the peptide is present during polymerization,2 molar ratio peptide:actin
same,effective peptide to actin ratio for bundling,1 molar ratio peptide:actin
same,"molar ratio of peptide to actin giving half-bundled and half-F-actin (co-polymerization, centrifugation, SDS-PAGE)",0.5 molar ratio peptide:actin
same,molar ratio of peptide:actin to bundle all the F-actin during polymerization,1 molar ratio peptide:actin
GIVRKWISRFEVWPYL [SS12 active synthetic peptide],bundling activity at 1:1 molar ratio to actin,1 molar ratio peptide:actin
same,bundling activity at molar ratio 100:1,100 molar ratio peptide:actin
same,bundling activity at molar ratio peptide:actin = 1:1,1 molar ratio peptide:actin
same,bundling activity at molar ratio to actin of 10 and 50,50 molar ratio peptide:actin
same,effective peptide to actin ratio for bundling,1 molar ratio peptide:actin
GIVRKAISRFEVAPYL [SS15 less active synthetic peptide],bundling activity at molar ratio 10:1 and 100:1,10 molar ratio peptide:actin
same,bundling activity at molar ratio peptide:actin = 1:1,1 molar ratio peptide:actin
same,effective peptide to actin ratio for bundling,~16 molar ratio peptide:actin
